Test results taken from article PMC5171940 (2016).
Where no end group is shown, it is not given here.

Columns and labels:
[1] = molecular target: Aβ oligomers: soluble prefibrillar aggregates of biotinylated Aβ(1–42) (biotin (position not given)); test: SPR
[2] = molecular target: T1, Aβ monomers on the SPR chip: biotinylated Aβ 11–28 (also: biotin, position not given here); test: SPR
T1 chain: EVHHQKLVFFAEDVGSNK

Chain of Aβ oligomers: soluble prefibrillar aggregates of biotinylated Aβ(1–42) (biotin (position not given)) (P05067 672-713): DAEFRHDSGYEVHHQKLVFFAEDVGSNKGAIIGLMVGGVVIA

- Kd [1]: 0.42 nM
- Kd [2]: 3.2 nM
B1: Crenezumab, fully humanized anti-Aβ monoclonal IgG4 (antibody, V domains shown)
VH: EVQLVESGGGLVQPGGSLRLSCAASGFTFSSYGMSWVRQAPGKGLELVASINSNGGSTYYPDSVKGRFTISRDNAKNSLYLQMNSLRAEDTAVYYCASGDYWGQGTTVTVSS
VL: DIVMTQSPLSLPVTPGEPASISCRSSQSLVYSNGDTYLHWYLQKPGQSPQLLIYKVSNRFSGVPDRFSGSGSGTDFTLKISRVEAEDVGVYYCSQSTHVPWTFGQGTKVEIK
